# Reference: IntAct's records for PubMed 16717101
# B1: Regulatory protein SIR4 (Saccharomyces cerevisiae), P11978 (parent)
# chain: MPNDNKTPNRSSTPKFTKKPVTPNDKIPEREEKSNEVKTPKIPLFTFAKSKNYSRPSTAIHTSPHQPSDVKPTSHKQLQQPKSSPLKKNNYNSFPHSNLEKISNSKLLSLLRSKTSAGRIESNNPSHDASRSLASFEQTAFSRHAQQQTSTFNSKPVRTIVPISTSQTNNSFLSGVKSLLSEEKIRDYSKEILGINLANEQPVLEKPLKKGSADIGASVISLTKDKSIRKDTVEEKKEEKLNIGKNFAHSDSLSVPKVSAGDSGISPEESKARSPGIAKPNAIQTEVYGINEESTNERLEINQEKPVKLDENSANSTVASALDTNGTSATTETLTSKKIVPSPKKVAIDQDKITLHDEKTLAPSKHQPITSEQKMKEDADLKRMEILKSPHLSKSPADRPQGRRNSRNFSTRDEETTKLAFLVEYEGQENNYNSTSRSTEKKNDMNTSAKNKNGENKKIGKRPPEIMSTEAHVNKVTEETTKQIQSVRIDGRKVLQKVQGESHIDSRNNTLNVTPSKRPQLGEIPNPMKKHKPNEGRTPNISNGTINIQKKLEPKEIVRDILHTKESSNEAKKTIQNPLNKSQNTALPSTHKVTQKKDIKIGTNDLFQVESAPKISSEIDRENVKSKDEPVSKAVESKSLLNLFSNVLKAPFIKSESKPFSSDALSKEKANFLETIASTEKPENKTDKVSLSQPVSASKHEYSDNFPVSLSQPSKKSFANHTEDEQIEKKKICRGRMNTIITHPGKMELVYVSDSDDSSSDNDSLTDLESLSSGESNEIKVTNDLDTSAEKDQIQAGKWFDPVLDWRKSDRELTKNILWRIADKTTYDKETITDLIEQGIPKHSYLSGNPLTSVTNDICSVENYETSSAFFYQQVHKKDRLQYLPLYAVSTFENTNNTEKNDVTNKNINIGKHSQEQNSSSAKPSQIPTVSSPLGFEETKLSTTPTKSNRRVSHSDTNSSKPKNTKENLSKSSWRQEWLANLKLISVSLVDEFPSELSDSDRQIINEKMQLLKDIFANNLKSAISNNFRESDIIILKGEIEDYPMSSEIKIYYNELQNKPDAKKARFWSFMKTQRFVSNMGFDIQKSCEPVSISTSVKPHVVEPEHMADAKIMPKDILQITKKPLMVKNVKPSSPPDVKSLVQLSTMETKTLPEKKQFDSIFNSNKAKIIPGNGKHASENISLSFSRPASYGYFSVGKRVPIVEDRRVKQLDDITDSNTTEILTSVDVLGTHSQTGTQQSNMYTSTQKTELEIDNKDSVTECSKDMKEDGLSFVDIVLSKAASALDEKEKQLAVANEIIRSLSDEVMRNEIRITSLQGDLTFTKKCLENARSQISEKDAKINKLMEKDFQVNKEIKPY
# Variants of: B1
# Conditions: with sir3_yeast SIR3, P06701
# Chain of sir3_yeast SIR3, P06701 (P06701 whole entry): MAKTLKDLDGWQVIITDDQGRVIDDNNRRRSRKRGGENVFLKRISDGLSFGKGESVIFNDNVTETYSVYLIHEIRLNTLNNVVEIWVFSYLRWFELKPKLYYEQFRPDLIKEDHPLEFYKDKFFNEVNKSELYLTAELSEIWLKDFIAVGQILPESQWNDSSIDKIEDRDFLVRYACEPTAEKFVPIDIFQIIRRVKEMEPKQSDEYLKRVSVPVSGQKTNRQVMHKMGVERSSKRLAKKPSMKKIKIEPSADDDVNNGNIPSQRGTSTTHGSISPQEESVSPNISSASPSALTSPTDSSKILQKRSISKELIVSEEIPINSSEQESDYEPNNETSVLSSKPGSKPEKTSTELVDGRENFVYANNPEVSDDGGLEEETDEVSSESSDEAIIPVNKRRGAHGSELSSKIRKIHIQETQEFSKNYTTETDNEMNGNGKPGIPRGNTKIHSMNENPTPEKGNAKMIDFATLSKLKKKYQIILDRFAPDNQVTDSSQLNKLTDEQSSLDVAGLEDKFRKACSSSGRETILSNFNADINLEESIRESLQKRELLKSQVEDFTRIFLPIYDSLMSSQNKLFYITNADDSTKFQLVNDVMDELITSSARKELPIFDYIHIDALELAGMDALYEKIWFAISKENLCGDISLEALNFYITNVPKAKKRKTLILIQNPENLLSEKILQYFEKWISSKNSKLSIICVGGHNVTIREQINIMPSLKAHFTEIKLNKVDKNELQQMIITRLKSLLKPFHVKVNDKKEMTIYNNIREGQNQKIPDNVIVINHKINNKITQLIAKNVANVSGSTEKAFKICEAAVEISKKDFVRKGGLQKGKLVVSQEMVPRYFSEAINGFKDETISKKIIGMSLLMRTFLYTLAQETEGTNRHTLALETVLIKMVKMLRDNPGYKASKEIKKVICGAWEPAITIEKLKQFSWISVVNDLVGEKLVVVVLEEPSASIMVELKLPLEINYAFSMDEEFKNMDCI
row,effect of a mutation on the interaction,Variant
1,decreasing interaction,M1307N
